Results on 5 variants are retold here after IntAct's records for PubMed 31515488.

The labels stand for the following.
B1: Probable splicing factor YJU2B (Homo sapiens), P13994 (parent)
chain: MGERKGVNKYYPPDFNPEKHGSLNRYHNSHPLRERARKLSQGILIIRFEMPYNIWCDGCKNHIGMGVRYNAEKKKVGNYYTTPIYRFRMKCHLCVNYIEMQTDPANCDYVIVSGAQRKEERWDMADNEQVLTTEHEKKQKLETDAMFRLEHGEADRSTLKKALPTLSHIQEAQSAWKDDFALNSMLRRRFREKKKAIQEEEERDQALQAKASLTIPLVPETEDDRKLAALLKFHTLDSYEDKQKLKRTEIISRSWFPSAPGSASSSKVSGVLKKLAQSRRTALATSPITVGDLGIVRRRSRDVPESPQHAADTPKSGEPRVPEEAAQDRPMSPGDCPPETTETPKCSSPRGQEGSRQDKPLSPAGSSQEAADTPDTRHPCSLGSSLVADYSDSESE
partner: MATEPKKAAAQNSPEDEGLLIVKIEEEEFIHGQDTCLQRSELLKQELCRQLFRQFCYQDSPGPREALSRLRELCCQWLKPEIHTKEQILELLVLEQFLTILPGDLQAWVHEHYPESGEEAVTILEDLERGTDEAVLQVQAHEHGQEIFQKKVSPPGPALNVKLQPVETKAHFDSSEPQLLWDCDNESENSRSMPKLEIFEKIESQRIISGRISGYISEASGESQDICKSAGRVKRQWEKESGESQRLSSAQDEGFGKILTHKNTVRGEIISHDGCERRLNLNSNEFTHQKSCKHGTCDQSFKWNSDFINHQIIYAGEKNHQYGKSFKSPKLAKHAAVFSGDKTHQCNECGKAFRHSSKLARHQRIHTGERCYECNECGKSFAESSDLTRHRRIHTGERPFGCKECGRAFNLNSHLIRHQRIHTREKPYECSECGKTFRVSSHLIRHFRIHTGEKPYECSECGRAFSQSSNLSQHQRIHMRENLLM
B2: Protein LDOC1 (Homo sapiens), O95751 (parent)
chain: MVDELVLLLHALLMRHRALSIENSQLMEQLRLLVCERASLLRQVRPPSCPVPFPETFNGESSRLPEFIVQTASYMLVNENRFCNDAMKVAFLISLLTGEAEEWVVPYIEMDSPILGDYRAFLDEMKQCFGWDDDEDDDDEEEEDDY
partner: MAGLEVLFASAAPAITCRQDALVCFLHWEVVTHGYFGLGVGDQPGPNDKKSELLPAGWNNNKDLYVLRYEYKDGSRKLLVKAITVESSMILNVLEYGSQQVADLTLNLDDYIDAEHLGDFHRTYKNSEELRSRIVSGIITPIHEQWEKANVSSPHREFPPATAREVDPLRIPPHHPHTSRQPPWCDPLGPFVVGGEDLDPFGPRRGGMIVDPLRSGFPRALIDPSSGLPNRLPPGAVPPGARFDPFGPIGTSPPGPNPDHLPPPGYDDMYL
B3: Zinc finger and BTB domain-containing protein 43 (Homo sapiens), O43298 (parent)
chain: MEPGTNSFRVEFPDFSSTILQKLNQQRQQGQLCDVSIVVQGHIFRAHKAVLAASSPYFCDQVLLKNSRRIVLPDVMNPRVFENILLSSYTGRLVMPAPEIVSYLTAASFLQMWHVVDKCTEVLEGNPTVLCQKLNHGSDHQSPSSSSYNGLVESFELGSGGHTDFPKAQELRDGENEEESTKDELSSQLTEHEYLPSNSSTEHDRLSTEMASQDGEEGASDSAEFHYTRPMYSKPSIMAHKRWIHVKPERLEQACEGMDVHATYDEHQVTESINTVQTEHTVQPSGVEEDFHIGEKKVEAEFDEQADESNYDEQVDFYGSSMEEFSGERSDGNLIGHRQEAALAAGYSENIEMVTGIKEEASHLGFSATDKLYPCQCGKSFTHKSQRDRHMSMHLGLRPYGCGVCGKKFKMKHHLVGHMKIHTGIKPYECNICAKRFMWRDSFHRHVTSCTKSYEAAKAEQNTTEAN
partner: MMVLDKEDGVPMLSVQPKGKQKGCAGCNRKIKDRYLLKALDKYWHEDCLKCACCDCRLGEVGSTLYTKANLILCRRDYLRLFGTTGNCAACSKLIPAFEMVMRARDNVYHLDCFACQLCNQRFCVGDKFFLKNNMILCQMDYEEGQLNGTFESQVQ
B4: Alpha-ketoglutarate-dependent dioxygenase alkB homolog 3 (Homo sapiens), Q96Q83 (parent)
chain: MEEKRRRARVQGAWAAPVKSQAIAQPATTAKSHLHQKPGQTWKNKEHHLSDREFVFKEPQQVVRRAPEPRVIDREGVYEISLSPTGVSRVCLYPGFVDVKEADWILEQLCQDVPWKQRTGIREDITYQQPRLTAWYGELPYTYSRITMEPNPHWHPVLRTLKNRIEENTGHTFNSLLCNLYRNEKDSVDWHSDDEPSLGRCPIIASLSFGATRTFEMRKKPPPEENGDYTYVERVKIPLDHGTLLIMEGATQADWQHRVPKEYHSREPRVNLTFRTVYPDPRGAPW

One experiment covers variants of B1. The note with it: with zn165_human ZNF165, P49910.
Regarding S22C, the “effect of a mutation on the interaction” value is listed as “with no effect”.

Variants of B2 are the subject of another experiment. The note with it: with psmf1_human PSMF1, Q92530.
For L12H, the “effect of a mutation on the interaction” value is “disrupting interaction strength”.

A further experiment covers variants of B3. The note with it: with rbtn1_human LMO1, P25800.
As to L151V, the “effect of a mutation on the interaction” value was “disrupting interaction strength”.

Variants of B4 are the subject of the next experiment. The note with it: with ikzf1_human IKZF1, Q13422.
Sequence of ikzf1_human IKZF1, Q13422 (Q13422 whole entry): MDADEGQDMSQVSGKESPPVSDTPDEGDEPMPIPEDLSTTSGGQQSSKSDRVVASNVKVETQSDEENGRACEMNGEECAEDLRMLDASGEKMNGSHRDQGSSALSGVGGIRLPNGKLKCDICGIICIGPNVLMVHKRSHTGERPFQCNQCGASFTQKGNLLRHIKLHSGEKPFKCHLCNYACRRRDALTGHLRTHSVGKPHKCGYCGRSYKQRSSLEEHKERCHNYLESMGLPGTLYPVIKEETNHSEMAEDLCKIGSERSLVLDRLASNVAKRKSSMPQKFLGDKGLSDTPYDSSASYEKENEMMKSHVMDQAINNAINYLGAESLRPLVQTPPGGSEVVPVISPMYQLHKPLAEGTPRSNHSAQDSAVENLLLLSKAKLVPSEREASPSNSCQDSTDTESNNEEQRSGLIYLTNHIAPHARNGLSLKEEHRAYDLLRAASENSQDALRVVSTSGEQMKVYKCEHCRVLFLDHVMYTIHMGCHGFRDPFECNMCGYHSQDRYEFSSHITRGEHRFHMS
Consider R213C, for which the “effect of a mutation on the interaction” value is recorded as “with no effect”.

Turning to N226S, the “effect of a mutation on the interaction” value is on record as “with no effect”.
